# In patent publication US20220017615A1 (SHANGHAI PHARMAEXPLORER, published 2022):
# Where a chain is given by its changes, count along the chain named.
# B1: 51E2F11 (antibody, V domains shown)
# VH: EVQLQQSGAELVKPGASVKLSCTASGFNIKDHYIHWMNQRTEQGLEWIGRIDPDDGETRYAPKFRGKATLTADTSSNTAYLQFSSLTSEDTAVYHCTRATTITRDWYFDVWGTGTTVTVSS
# VL: DIVMTQSQKFMSTSVGDRVSITCKASQNVRTSVAWYQQKPGQSPKALIYLASNRHTGIPDRFTGSGSGTDFTLTIRNVQSEDLADYFCLQHWDYPLTFGAGTKLELK
# notes: Murine hybridoma antibody purified on protein G
# B2: 25E3B5 (antibody, V domains shown)
# VH: QVQLQQPGTALVRPGSSVKLSCKASGYTFTSYWMHWVRQRPIKGLEWIGNIDPSDSETHYNQRFKDKVTLTVDKSSNTAYMQLSSLTSEDSAVYYCARWKYHGIGAMDYWGQGTSVTVSS
# VL: DVQITQSPSYLAASPGETVTISCRTNRNISKFLAWYQEKPGKTNKLLIYSGSTLHSGIPSRFSGSGSGTDFTLTISRLEPEDFAMYYCQQHNEYPWSFGGGTKLEIK
# notes: as for B1
# B3: 20H4G5 (antibody, V domains shown)
# VH: QVQLQQPGAELVRPGSSVRLSCVTSGYTFTSHWMHWVKQGPIKGLEWIGNIDPSDSETHYNQKFKDKATLTVDKSSSTAYMQLSRLTSDDSAVYYCARWRHLGIGAMDYWGQGTSVIVSS
# VL: B2 VL with V19I, S22N, T25A, N26S, R27K, E38A, T43S, K45N, H55Q, S97T
# notes: as for B1
# Biological target: T1, human CD47, full length, on transfected cells (human, UniProt Q08722 19-323)
# T1 construct: whole, on cells; also called CHOK1-hCD47
# Experiment: FACS CHOK1-hCD47; Ab 8 nM
# Experimental: (§1) The CHOK1-hCD47 stable cell lines and CHOK1-cCD47 stable cell lines were expanded to 90% confluence in a T-75 cell culture flask, the medium was exhausted, washed twice with HBSS buffer (Hanks balanced salt solution) (purchased from Invitrogen), and then treated and collected with enzyme-free cell dissociation solution (Versene solution: purchased from Life technology). The cells were washed twice with HBSS buffer. After counted, the cells were diluted with HBSS to 2×10⁶ cells per ml, added with 1% goat serum blocking solution, wherein the percentage was the mass percantage, incubated on ice for 30 minutes, and then washed twice with HBSS by centrifugation. […] The plate was washed 3 times with FACS buffer by centrifugation, added with 100 μl fixative solution [4% (v/v) Paraformaldehyde] per well to suspend the cells. 10 minutes later, it was washed twice with FACS buffer by centrifugation. The cells were suspended with 100 microliters of FACS buffer, FACS (FACS Calibur, purchased from BD) was used for detection and the results were analyzed.
row,Binder,mean fluorescence intensity
1,B1,12700
2,B2,7020
3,B3,8470

# Biological target: T2, cynomolgus CD47, on CHOK1-cCD47 stable cell line (cynomolgus)
# T2 construct: whole, on cells; check before use; also called CHOK1/cynoCD47; monkey-derived CD47
# Experiment: FACS CHOK1-cCD47; Ab 8 nM
# Experimental: as §1
row,Binder,mean fluorescence intensity
1,B1,10600
2,B2,13200
3,B3,16400

# Biological target: T1, human CD47, full length, on transfected …
# Experiment: FACS CHOK1-hCD47; Ab 40 nM
# Experimental: as §1
row,Binder,mean fluorescence intensity
1,B1,15900
2,B2,9790
3,B3,9520

# Biological target: T2, cynomolgus CD47, on CHOK1-cCD47 stable …
# Experiment: FACS CHOK1-cCD47; Ab 40 nM
# Experimental: as §1
row,Binder,mean fluorescence intensity
1,B1,13300
2,B2,9760
3,B3,13400

# Biological target: T1, human CD47, full length, on transfected …
# Experiment: FACS CHOK1-hCD47; Ab 1.6 nM
# Experimental: as §1
row,Binder,mean fluorescence intensity
1,B1,6460
2,B2,4430
3,B3,6160

# Biological target: T1, human CD47, full length, on transfected …
# Experiment: FACS CHOK1-hCD47; Ab 200 nM
# Experimental: as §1
row,Binder,mean fluorescence intensity
1,B1,14600
2,B2,9420
3,B3,6550

# Biological target: T2, cynomolgus CD47, on CHOK1-cCD47 stable …
# Experiment: FACS CHOK1-cCD47; Ab 1.6 nM
# Experimental: as §1
row,Binder,mean fluorescence intensity
1,B1,7190
2,B2,7400
3,B3,9450

# Biological target: T2, cynomolgus CD47, on CHOK1-cCD47 stable …
# Experiment: FACS CHOK1-cCD47; Ab 200 nM
# Experimental: as §1
row,Binder,mean fluorescence intensity
1,B1,9460
2,B2,7040
3,B3,16500

# Biological target: T1, human CD47, full length, on transfected …
# Experiment: FACS CHOK1-hCD47; Ab 0.32 nM
# Experimental: as §1
row,Binder,mean fluorescence intensity
1,B1,2000
2,B2,1560
3,B3,2980

# Biological target: T2, cynomolgus CD47, on CHOK1-cCD47 stable …
# Experiment: FACS CHOK1-cCD47; Ab 0.32 nM
# Experimental: as §1
row,Binder,mean fluorescence intensity
1,B1,2880
2,B2,4550
3,B3,3310

# Biological target: T1, human CD47, full length, on transfected …
# Experiment: FACS CHOK1-hCD47; Ab 0.064 nM
# Experimental: as §1
row,Binder,mean fluorescence intensity
1,B1,541
2,B2,386
3,B3,759

# Biological target: T2, cynomolgus CD47, on CHOK1-cCD47 stable …
# Experiment: FACS CHOK1-cCD47; Ab 0.064 nM
# Experimental: as §1
row,Binder,mean fluorescence intensity
1,B1,288
2,B2,1450
3,B3,998

# Biological target: T1, human CD47, full length, on transfected …
# Experiment: FACS CHOK1-hCD47; Ab 0.0128 nM
# Experimental: as §1
row,Binder,mean fluorescence intensity
1,B1,174
2,B2,120
3,B3,233

# Biological target: T2, cynomolgus CD47, on CHOK1-cCD47 stable …
# Experiment: FACS CHOK1-cCD47; Ab 0.0128 nM
# Experimental: as §1
row,Binder,mean fluorescence intensity
1,B1,245
2,B2,422
3,B3,343

# Biological target: T3, His-tagged CD47 recombinant protein, CD47-His (human, UniProt Q08722 19-141, limits assumed)
# T3 construct: it is not restated for CD47-His; also called human CD47-His protein; antigen CD47-His; not shown: His tag
# Experiment: ELISA on coated CD47-His; Ab 0.004 nM
row,Binder,OD450 nm
1,B1,0.16
2,B2,0.14
3,B3,0.31

# Biological target: T3, His-tagged CD47 recombinant protein, …
# Experiment: ELISA on coated CD47-His; Ab 0.021 nM
# Experimental: (§2) The plate was sealed with plastic film and incubated at 4° C. overnight. The plate was washed twice with plate washing solution [PBS+0.01% (v/v) Tween20] the next day, and blocking solution [PBS+0.01% (v/v) Tween20 +1% (w/w) BSA] was added to block it at room temperature for 2 hours. […] After incubation at 37° C. for 2 hours, the plates were washed three times with plate washing solution [PBS+0.01% (v/v) Tween 20]. HRP (horseradish peroxidase) labeled secondary antibody (purchased from Sigma) was added, incubated at 37° C. for 2 hours, and then washed three times with plate washing solution [PBS+0.01% (v/v) Tween 20]. 1000 of TMB substrate was added to each well. After incubated at room temperature for 30 minutes, the plate was added with 100 μl of stop solution (1.0N HCl) to each well.
row,Binder,OD450 nm
1,B1,0.53
2,B2,0.46
3,B3,1.15

# Biological target: T3, His-tagged CD47 recombinant protein, …
# Experiment: ELISA on coated CD47-His; Ab 0.107 nM
# Experimental: as §2
row,Binder,OD450 nm
1,B1,1.83
2,B2,1.68
3,B3,2.61

# Biological target: T3, His-tagged CD47 recombinant protein, …
# Experiment: ELISA on coated CD47-His; Ab 0.533 nM
# Experimental: as §2
row,Binder,OD450 nm
1,B1,2.95
2,B2,2.91
3,B3,3.02

# Biological target: T3, His-tagged CD47 recombinant protein, …
# Experiment: ELISA on coated CD47-His; Ab 2.667 nM
# Experimental: as §2
row,Binder,OD450 nm
1,B1,3
2,B2,3.02
3,B3,3.01

# Biological target: T3, His-tagged CD47 recombinant protein, …
# Experiment: ELISA on coated CD47-His; Ab 13.333 nM
# Experimental: as §2
row,Binder,OD450 nm
1,B1,2.97
2,B2,2.96
3,B3,2.94

# Biological target: T3, His-tagged CD47 recombinant protein, …
# Experiment: ELISA on coated CD47-His; Ab 66.667 nM
# Experimental: as §2
row,Binder,OD450 nm
1,B1,2.95
2,B2,2.89
3,B3,2.9

# Biological target: T1, human CD47, full length, on transfected …
# Experiment: FACS CHOK1-hCD47; Ab 0 nM (background)
# Experimental: as §1
row,Binder,mean fluorescence intensity
1,B1,22.6
2,B2,22.9
3,B3,23.1

# Biological target: T2, cynomolgus CD47, on CHOK1-cCD47 stable …
# Experiment: FACS CHOK1-cCD47; Ab 0 nM (background)
# Experimental: as §1
row,Binder,mean fluorescence intensity
1,B1,72.4
2,B2,83.5
3,B3,81.2

# Biological target: T3, His-tagged CD47 recombinant protein, …
# Experiment: ELISA on coated CD47-His; Ab 0 nM (background)
# Experimental: as §2
row,Binder,OD450 nm
1,B1,0.05
2,B2,0.05
3,B3,0.05

# Biological target: T4, biotin-labeled CD47 extracellular domain protein (CD47-ECD) (UniProt Q08722 19-139, limits assumed, biotin-labeled (sites not given))
# T4 construct: extracellular domain; also called CD47 protein
# Experiment: blocking ELISA, biotin-CD47-ECD on coated SIRPα-hFc; Ab 0 nM
row,Binder,OD450 nm of CD47 bound to SIRPα
1,B1,2.95
2,B2,2.91
3,B3,2.9

# Biological target: T4, biotin-labeled CD47 extracellular …
# Experiment: blocking ELISA, biotin-CD47-ECD on coated SIRPα-hFc; Ab 8 nM
# Experimental: (§3) The plate was sealed with plastic film and incubated at 4° C. overnight. The plate was washed twice with plate washing solution [PBS+0.01% (v/v) Tween20] on the next day, and blocking solution [PBS+0.01% (v/v) Tween20 +1% (w/w) BSA] was added to block it at room temperature for 2 hours. […] After incubation at 37° C. for 2 hours, the plate was washed three times with the plate washing solution [PBS+0.01% (v/v) Tween 20]. HRP (horseradish peroxidase) labeled avidin diluent (purchased from Sigma) was added as 100 microliters per well, and after the plate was incubated for 2 hours at 37° C., it was washed 3 times with washing solution [PBS+0.01% (v/v) Tween 20]. 100 μl of TMB substrate was added to each well. After incubated at room temperature for 30 minutes, the plate was added with 100 μl of stop solution (1.0N HCl) to each well.
row,Binder,OD450 nm of CD47 bound to SIRPα
1,B1,0.1
2,B2,0.07
3,B3,0.08

# Biological target: T4, biotin-labeled CD47 extracellular …
# Experiment: blocking ELISA, biotin-CD47-ECD on coated SIRPα-hFc; Ab 40 nM
# Experimental: as §3
row,Binder,OD450 nm of CD47 bound to SIRPα
1,B1,0.08
2,B2,0.06
3,B3,0.07

# Biological target: T4, biotin-labeled CD47 extracellular …
# Experiment: blocking ELISA, biotin-CD47-ECD on coated SIRPα-hFc; Ab 1.6 nM
# Experimental: as §3
row,Binder,OD450 nm of CD47 bound to SIRPα
1,B1,0.32
2,B2,0.18
3,B3,0.16

# Biological target: T4, biotin-labeled CD47 extracellular …
# Experiment: blocking ELISA, biotin-CD47-ECD on coated SIRPα-hFc; Ab 200 nM
# Experimental: as §3
row,Binder,OD450 nm of CD47 bound to SIRPα
1,B1,0.07
2,B2,0.06
3,B3,0.07

# Biological target: T4, biotin-labeled CD47 extracellular …
# Experiment: blocking ELISA, biotin-CD47-ECD on coated SIRPα-hFc; Ab 0.32 nM
# Experimental: as §3
row,Binder,OD450 nm of CD47 bound to SIRPα
1,B1,1.57
2,B2,1.06
3,B3,0.68

# Biological target: T4, biotin-labeled CD47 extracellular …
# Experiment: blocking ELISA, biotin-CD47-ECD on coated SIRPα-hFc; Ab 0.064 nM
# Experimental: as §3
row,Binder,OD450 nm of CD47 bound to SIRPα
1,B1,2.77
2,B2,2.5
3,B3,2.29

# Biological target: T4, biotin-labeled CD47 extracellular …
# Experiment: blocking ELISA, biotin-CD47-ECD on coated SIRPα-hFc; Ab 0.0128 nM
# Experimental: as §3
row,Binder,OD450 nm of CD47 bound to SIRPα
1,B1,2.94
2,B2,2.79
3,B3,2.81
